Test results published in PMC4709948.

Biological target: GST-fused PRAK protein (UniProt Q8IW41)
Assay: SPR; GST-fused PRAK captured by anti-GST antibodies on a CM5 chip; RAGE C-terminal region as analyte, 0 to 40 uM, HBS-EP buffer pH 7.4, 30 uL/min; Biacore X-100

UniProt Q8IW41, sequence (Q8IW41 whole entry, the tested form may be a part): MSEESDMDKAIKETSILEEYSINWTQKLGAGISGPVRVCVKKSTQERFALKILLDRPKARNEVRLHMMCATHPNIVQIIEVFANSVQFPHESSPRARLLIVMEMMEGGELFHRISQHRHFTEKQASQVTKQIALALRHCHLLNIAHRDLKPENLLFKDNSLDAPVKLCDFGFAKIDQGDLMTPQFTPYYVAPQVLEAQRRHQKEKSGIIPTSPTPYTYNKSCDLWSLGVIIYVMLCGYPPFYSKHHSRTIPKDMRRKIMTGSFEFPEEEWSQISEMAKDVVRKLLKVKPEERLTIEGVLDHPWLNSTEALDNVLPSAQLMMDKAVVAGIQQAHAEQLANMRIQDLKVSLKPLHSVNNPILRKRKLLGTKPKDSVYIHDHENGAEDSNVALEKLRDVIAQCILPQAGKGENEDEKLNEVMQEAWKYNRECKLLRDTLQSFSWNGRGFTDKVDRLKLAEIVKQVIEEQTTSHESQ

With “RAGE C-terminal region, SPR analyte (domain or fragment)” the Kd was 0.509 nM.
